In one assay the target is hAM1R (human, UniProt Q16602). The assay can be described thus: cell-based or functional assay.
The next assay concerns the target T1, hAMY3R (human, UniProt P30988).
T1 sequence 1: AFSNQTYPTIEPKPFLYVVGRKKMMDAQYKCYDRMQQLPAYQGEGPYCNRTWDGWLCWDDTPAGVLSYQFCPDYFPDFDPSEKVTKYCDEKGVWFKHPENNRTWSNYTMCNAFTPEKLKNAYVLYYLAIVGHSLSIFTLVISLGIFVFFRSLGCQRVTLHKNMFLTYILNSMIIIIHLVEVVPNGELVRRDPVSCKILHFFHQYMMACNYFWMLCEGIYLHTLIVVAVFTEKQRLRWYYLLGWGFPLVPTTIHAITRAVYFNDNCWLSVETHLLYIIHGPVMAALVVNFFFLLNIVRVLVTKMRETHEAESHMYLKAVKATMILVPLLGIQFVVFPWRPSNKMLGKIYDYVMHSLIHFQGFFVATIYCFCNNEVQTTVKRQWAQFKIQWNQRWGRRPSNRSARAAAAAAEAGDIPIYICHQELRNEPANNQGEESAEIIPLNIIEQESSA
T1 sequence 2: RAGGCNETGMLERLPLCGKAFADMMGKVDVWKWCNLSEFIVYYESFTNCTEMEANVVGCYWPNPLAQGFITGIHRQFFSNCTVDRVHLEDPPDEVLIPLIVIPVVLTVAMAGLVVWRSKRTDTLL
The assay can be described thus: cell-based or functional assay.

Numbered stars: 1 amine (or outer) side, 2 acyl side, 3 side chain; on linkers, the order of the positions; unused ones are H or OH. Bridge positions count the residues as written; N and C are the ends. Square brackets hold non-standard residues; d marks the D form. Side chains are listed from the residue outwards. Ends that are not written are not given here. * marks the point of attachment. C20 diacid = O=C(O)CCCCCCCCCCCCCCCCCCC(=O)*; γGlu = O=C(O)[C@H](CCC(=O)[*:2])N[*:1]; Hyp = O=C(O)[C@@H]1C[C@@H](O)CN1; AEEA = NCCOCCOCC(=O)O

In the case of {C20 diacid-γGlu}-KCNFATCATQRLANFLVQFTDKDKDNVAPRSKIGPQGY-NH2 (disulfide 2-7 (inferred); ends not checked) [SEQ ID NO: 389], in the assay with hAM1R, the “hAM1R EC50 (cAMP)” value is 1.04 nM. In the assay with hAMY3R, the “hAMY3R EC50 (cAMP)” value came to 0.045 nM.
On to KCNTATCTVQRLAEQIYQFTDKDKK([AEEA-AEEA-γGlu-C20 diacid])NVAPPTNVGSNG[Hyp]-NH2 (disulfide 2-7 (inferred); not fully specified (N-terminus); ends not checked) [SEQ ID NO: 40], for which the “hAM1R EC50 (cAMP)” value with hAM1R was above 5000 nM. Moreover, the “hAMY3R EC50 (cAMP)” value in the assay with hAMY3R came to 0.01 nM.
Taken in the same sequence, the figures for KCNTATCTVQRLAEQIYQFTDKDKDNVAPPYNEGSNG[Hyp]-NH2 (disulfide 2-7 (inferred); ends not checked) [SEQ ID NO: 44] were above 5000 nM and 0.01 nM.
Taken in the same sequence, the figures for {C20 diacid-γGlu}-GCRFGTCTVQRLANQIYQFTDKDKDNVAPRTNVGPQGY-NH2 (disulfide 2-7 (inferred); ends not checked) [SEQ ID NO: 372] were 3.94 nM and 0.02 nM.
As for KCNTATCTVQRLAHQIYAFTDKDKDNVAPPTNVGSNG[Hyp]-NH2 (disulfide 2-7 (inferred); ends not checked) [SEQ ID NO: 42], in the assay with hAM1R, the “hAM1R EC50 (cAMP)” value was above 5000 nM. For the same molecule, the “hAMY3R EC50 (cAMP)” value in the assay with hAMY3R was 0.01 nM.
Taken in the same sequence, the figures for {C20 diacid-γGlu}-KCNFATCTVQRLAHQIYQFTDKDKDNVAPRTEVGSNGY-NH2 (disulfide 2-7 (inferred); ends not checked) [SEQ ID NO: 370] were 10.3 nM and 0.017 nM.
Taken in the same sequence, the figures for {C20 diacid-γGlu}-GCRFGTCTVQRLAHFLYQFTDKDKDNVAPRTKIGPQGY-NH2 (disulfide 2-7 (inferred); ends not checked) [SEQ ID NO: 390] were 0.889 nM and 0.048 nM.
Taken in the same sequence, the figures for {C20 diacid-γGlu}-GCRFGTCTVQRLAHFLYQFTDKDKDNVAPRTNIGPQGY-NH2 (disulfide 2-7 (inferred); ends not checked) [SEQ ID NO: 388] were 4.01 nM and 0.043 nM.
For the molecule {C20 diacid-γGlu}-KCNFATCTVQRLAHQIYQFTDKDKDNVAPRTKVGSNGY-NH2 (disulfide 2-7 (inferred); ends not checked) [SEQ ID NO: 378], the “hAM1R EC50 (cAMP)” value with hAM1R was 0.893 nM. Also, in the assay with hAMY3R, the “hAMY3R EC50 (cAMP)” value is 0.027 nM.
Taken in the same sequence, the figures for KCNTATCTVQRLAHQIYQFTDKAKDNVAPPTNVGSNG[Hyp]-NH2 (disulfide 2-7 (inferred); ends not checked) [SEQ ID NO: 43] were above 5000 nM and 0.01 nM.
In the case of GCRFGTCTVQRLAHQIYQFTDKDKDNVAPRSNISPNGY [SEQ ID NO: 383], the “hAM1R EC50 (cAMP)” value with hAM1R came out at 5.93 nM. In the assay with hAMY3R, the “hAMY3R EC50 (cAMP)” value is 0.034 nM.
Taken in the same sequence, the figures for GCRFGTCTVQRLAHFLYQFTDKDKDNVAPRTKIGSNGY [SEQ ID NO: 376] were 12 nM and 0.022 nM.
Taken in the same sequence, the figures for {C20 diacid-γGlu}-GCRFATCTVQRLAHQIYQFTDKDKDNVAPRTKVGPQGY-NH2 (disulfide 2-7 (inferred); ends not checked) [SEQ ID NO: 380] were 0.162 nM and 0.031 nM.
Taken in the same sequence, the figures for {C20 diacid-γGlu}-KCNTATCTVNRLAHQIYQFTDKDKDNVAPPTNVGSNG[Hyp]-NH2 (disulfide 2-7 (inferred); ends not checked) [SEQ ID NO: 38] were above 5000 nM and 0.01 nM.
For {C20 diacid-γGlu}-GCRFGTCTVQRLAHFLYQFTDKDKDNVAPRTKVGPQGY-NH2 (disulfide 2-7 (inferred); ends not checked) [SEQ ID NO: 392], the “hAM1R EC50 (cAMP)” value in the assay with hAM1R came to 5.03 nM. Besides, in the assay with hAMY3R, the “hAMY3R EC50 (cAMP)” value is 0.113 nM.
Turning to {C20 diacid-γGlu}-RCNTATCTVQRLAHQIYQFTDKDKDNVAPPTNVGSNG[Hyp]-NH2 (disulfide 2-7 (inferred); ends not checked) [SEQ ID NO: 39], the “hAM1R EC50 (cAMP)” value with hAM1R was above 5000 nM. Further, in the assay with hAMY3R, the “hAMY3R EC50 (cAMP)” value came out at 0.01 nM.
Taken in the same sequence, the figures for {C20 diacid-γGlu}-GCRFGTCTVQRLANFLYQFTDKDKDNVAPRTNVGPQGY-NH2 (disulfide 2-7 (inferred); ends not checked) [SEQ ID NO: 386] were 7.35 nM and 0.039 nM.
Taken in the same sequence, the figures for KCNTATCTVQRLAEQIYQFTDKDKDK([AEEA-AEEA-γGlu-C20 diacid])VAPPTNVGSNG[Hyp]-NH2 (disulfide 2-7 (inferred); not fully specified (N-terminus); ends not checked) [SEQ ID NO: 41] were above 5000 nM and 0.01 nM.
Taken in the same sequence, the figures for GCRFGTCTVQRLAHQIYQFTDKDKDNVAPRTKVGPQGY [SEQ ID NO: 368] were 0.997 nM and 0.015 nM.
As for GCRFGTCTVQRLAHFLYQFTDKDKDNVAPRTKVGPQGY [SEQ ID NO: 369], the “hAM1R EC50 (cAMP)” value with hAM1R is 2.48 nM. Also, the “hAMY3R EC50 (cAMP)” value in the assay with hAMY3R was 0.017 nM.
Turning to GCRFGTCTVQRLAHQIYQFTDKDKDNVAPRSNVGPQGY [SEQ ID NO: 374], the “hAM1R EC50 (cAMP)” value with hAM1R was found to be 12 nM. The “hAMY3R EC50 (cAMP)” value with hAMY3R worked out at 0.021 nM.
Taken in the same sequence, the figures for GCRFGTCTVQRLAHQIYQFTDKDKDNVAPRSKVGPQGY [SEQ ID NO: 375] were 0.403 nM and 0.022 nM.
Taken in the same sequence, the figures for GCRFGTCTVQRLAHQIYQFTDKDKDNVAPRTNIGPQGY [SEQ ID NO: 379] were 0.458 nM and 0.029 nM.
Taken in the same sequence, the figures for GCRFATCTVQRLAHFLYQFTDKDKDNVAPRTKVGPQGY [SEQ ID NO: 377] were 0.243 nM and 0.024 nM.
On to GCRFGTCTVQRLAHQIYQFTDKDKDNVAPRTKISPNGY [SEQ ID NO: 371], for which the “hAM1R EC50 (cAMP)” value in the assay with hAM1R was found to be 3.03 nM. Besides, the “hAMY3R EC50 (cAMP)” value with hAMY3R worked out at 0.019 nM.
Consider GCRFGTCTVQRLAHQIYQFTDKDKDNVAPRSKIGPQGY [SEQ ID NO: 387], for which the “hAM1R EC50 (cAMP)” value with hAM1R came to 0.992 nM. Further, the “hAMY3R EC50 (cAMP)” value with hAMY3R came to 0.04 nM.
Turning to GCRFGTCTVQRLAHQIYQFTDKDKDNVAPRSNIGPQGY [SEQ ID NO: 382], the “hAM1R EC50 (cAMP)” value with hAM1R came to 5.12 nM. The “hAMY3R EC50 (cAMP)” value with hAMY3R amounted to 0.034 nM.
With GCRFGTCTVQRLAHQIYQFTDKDKDNVAPRTNIGPNGY [SEQ ID NO: 381], in the assay with hAM1R, the “hAM1R EC50 (cAMP)” value was found to be 7.61 nM. Also, the “hAMY3R EC50 (cAMP)” value with hAMY3R worked out at 0.032 nM.
Taken in the same sequence, the figures for GCRFGTCTVQRLAHQIYQFTDKDKDNVAPRTKVSPNGY [SEQ ID NO: 385] were 7 nM and 0.036 nM.
Taken in the same sequence, the figures for GCRFGTCTVQRLAHQIYQFTDKDKDNVAPRTKIGPQGY [SEQ ID NO: 391] were 0.665 nM and 0.068 nM.
Taken in the same sequence, the figures for GCRFGTCTVQRLAHQIYQFTDKDKDNVAPRSKVSPNGY [SEQ ID NO: 384] were 1.09 nM and 0.036 nM.
Regarding GCRFGTCTVQRLAHQIYQFTDKDKDNVAPRSNVGPNGY [SEQ ID NO: 373], the “hAM1R EC50 (cAMP)” value with hAM1R amounted to 7.71 nM. For the same molecule, in the assay with hAMY3R, the “hAMY3R EC50 (cAMP)” value came out at 0.02 nM.

These data come from patent publication US12139520B2 (priority 2020, dated 2024).
